Experimental data as given in paper PMC10983743.

Biological target: T1, Podoplanin (PDPN) on PDPN+ B16-F0 murine melanoma cells (mouse (endogenous in B16-F0)) (UniProt Q62011)
T1 sequence: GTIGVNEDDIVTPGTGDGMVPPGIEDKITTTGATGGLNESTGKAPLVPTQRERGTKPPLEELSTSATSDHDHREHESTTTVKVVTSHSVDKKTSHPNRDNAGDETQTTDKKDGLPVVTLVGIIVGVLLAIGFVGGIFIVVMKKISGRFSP

percent of tumour cells associated with platelets, counted under a fluorescence microscope (WT platelets mixed with PDPN+ B16-F0 cells, 1:200 tumour cells:platelets, 20 min at 37 °C): 65%
B1: C-type lectin-like receptor 2 (CLEC-2) on platelets of WT C57BL/6J mice (receptor)
chain: MQDEDGYITLNIKPRKQALSSAEPASSWWRVMALVLLISSMGLVVGLVALGIMSVTQQKYLLAEKENLSATLQQLAKKFCQELIRQSEIKTKSTFEHKCSPCATKWRYHGDSCYGFFRRNLTWEESKQYCTEQNATLVKTASQSTLDYIAERITSVRWIGLSRQNSKKDWMWEDSSVLRKNGINLSGNTEENMNCAYLHNGKIHPASCKERHYLICERNAGMTRVDQLL
